# Assays:
# [1] = Pharmacokinetics of hGH in the dog after subcutaneous injection of nanoparticle and microparticle formulations (Example 12); assay type: in vivo, beagle dogs; conditions: 1 mg/kg hGH
# Protocol: (§1) Twelve naïve beagle dogs (weighing 7 to 10 kg) were treated with the following formulations:
# The hGH IR corresponds to a solution of recombinant human growth hormone ([hGH]=4 mg/ml, pH=7.2, 330 mOsm).
# Formulation 1 is prepared according to Example 2 and formulation 2 according to Example 7. The hGH is assayed by ELISA (DSL 10-1900 kit).
# where: • Cmax is the maximum serum hGH concentration, • T>5 ng/ml is the time when the serum hGH concentration is greater than 5 ng/ml, • AUC represents the area under the curve of serum hGH concentration as a function of time, • RBA represents the bioavailability relative to an Immediate-Release formulation, • T50% auc represents the time required to release 50% of the total hGH released.
# [2] = Pharmacokinetics of hGH in the dog after subcutaneous injection of a microparticle formulation (Example 13); assay type: in vivo, beagle dogs; conditions: hGH IR 5 × 0.1 mg/kg per day, Formulation 3 0.5 mg/kg
# Protocol: as §1
# The hGH IR corresponds to a solution of recombinant human growth hormone ([hGH]=4.1 mg/ml, pH=7.2, 330 mOsm). Formulation 3 is prepared according to Example 9.
substance,measurement,setting,value
"hGH IR: solution of recombinant human growth hormone, immediate-release reference",RBA (bioavailability relative to an Immediate-Release formulation),[1],100%
same,T50% auc ± SD (time required to release 50% of the total hGH released),[1],4 ± 1 h
same,T > 5 ng/ml ± SD (time when serum hGH concentration is greater than 5 ng/ml),[1],18 ± 3 h
same,apparent T½ (elimination),[1],about 2 hours
same,median time to reach maximum serum concentration,[1],2 h
same,time beyond which circulating hGH is no longer quantifiable,[1],24 h
same,AUC0-last ± SD,[1]; serum hGH,3209 ± 276 ng·h/mL
same,Cmax ± SD (maximum serum hGH concentration),"[1]; serum, ELISA, 1 mg/kg",582 ± 155 ng/mL
same,AUC0-last ± SD,[2],258 ± 26 ng·h/mL
same,Cmax ± SD (maximum serum hGH concentration),[2],90 ± 24 ng/mL
same,RBA (bioavailability relative to an Immediate-Release formulation),[2],100%
same,T50% auc ± SD,[2],2 ± 0.3 h
same,T > 1 ng/ml ± SD,[2],39 h
